Laboratory results published in FireProtDB (doi:10.1016/j.jmb.2009.11.038).

B1: P7S|H8S, Q5NV88 (parent)
chain: NFMLTQPHSVSESPGKTVTISCTRSSGSIASNYVQWYQQRPGSSPTTVIYEDNQRPSGVPDRFSGSIDSSSNSASLTISGLKTEDEADYYCQSYDSSN

Variants of: B1
Conditions: Homo sapiens, pH 7.5, Fluorescence, Sodium phosphate 20mM, transition: 2, structure 2W0K, whole UniProt chain shown

Variant | Tm (Thermal) [°C] | change of melting temperature, mutant - wild type (higher = more stable) (Thermal) [°C] | ddG of mutation (higher = less stable) (Thermal) [kcal/mol] | unfolding enthalpy (calorimetric) (Thermal) [kcal/mol] | unfolding free energy (Thermal) [kcal/mol] | ddG of mutation (higher = less stable) (25 °C, GdnHCl) [kcal/mol] | denaturant midpoint (higher = more stable) (25 °C, GdnHCl) [M] | unfolding free energy (25 °C, GdnHCl) [kcal/mol]
P7S H8S | 43.7 | -6.2 | 1.4 | 79.4 | 3.8 |  |  | 
H8S | 49.5 | -0.4 | 0.2 | 84.4 | 5 | 0.6 | 1.28 | 4.5
H8P | 50.1 | 0.2 | 0.8 | 84.8 | 4.4 |  |  | 
P7S | 43 | -6.9 | 1.5 | 79.5 | 3.7 | 2.6 | 0.84 | 2.5
